B1: Ankyrin-2, residues 3571 to 3650; numbered along this chain, Q01484 (parent)
chain: ERLAYIADHLGFSWTELARELDFTEEQIHQIRIENPNSLQDQSHALLKYWLERDGKHATDTNLVECLTKINRMDIVHLME

± gives the uncertainty stated by the source.

Data on 34 variants can be found in the Human Domainome abundance scans (Beltran et al. 2025).

In this series the parent is B1. In words: abundance fitness (aPCA) (normalised: wild type 0, dead -1); higher = more abundant; growth selection in yeast, the domain comes from the species named. Conditions: Homo sapiens.
With ERLAYIADHLGFSWTELARELDFTEEQIHQIRIENPNSLQDQSHALLKYWLERDGFHATDTNLVECLTKINRMDIVHLME, the abundance fitness was -0.023 ± 0.094. Next, ERLAYIADHLGFSWTELARELDLTEEQIHQIRIENPNSLQDQSHALLKYWLERDGKHATDTNLVECLTKINRMDIVHLME: -0.066 ± 0.076; ERLAYIADHLGFSWTELARELDITEEQIHQIRIENPNSLQDQSHALLKYWLERDGKHATDTNLVECLTKINRMDIVHLME: 0.047 ± 0.18. Next, ERLAYIADHLGFSWTELARELDFTEEQIHQIRIENPNSLQDQSHALLKYSLERDGKHATDTNLVECLTKINRMDIVHLME: -0.081 ± 0.06; ERLAYIADHLGFSWTELARELDFTEEQIHQIRIENPNSLQDQSHALLKYWLERDGKHWTDTNLVECLTKINRMDIVHLME: -0.167 ± 0.082; ERLAYIADHLGFSWTELARELDFTEEQIHQIRIENPNSLQDQSHALLKYWLERDGKHATDTDLVECLTKINRMDIVHLME: 0.051 ± 0.081. Next, ERLAYIADHLGFSWTELARELDFTEEQIHQIRIENPNSLQDQSHALLWYWLERDGKHATDTNLVECLTKINRMDIVHLME: -0.171 ± 0.11; ERLAYIADHLGFSWTELARELDFTEEQIHQIRIENPNSLQDQSHALLRYWLERDGKHATDTNLVECLTKINRMDIVHLME: 0.01 ± 0.056. Take ERLAYIADHLGFSWTELARELDFTEEQIHQIRIENPNSLQDQSHALLKYWLERDGKHATDTNLVECLTKCNRMDIVHLME: the abundance fitness was -0.113 ± 0.075. Take ERLAYIADHLGFSWTELARELDFTEEQIHQIRIENPNSLQDQSHALLKYWLERDGKHATDTNLVECLTKDNRMDIVHLME: the abundance fitness is -0.533 ± 0.12.

For ERLAYIADHLGFSWTELARELDFTEEQIHQIRGENPNSLQDQSHALLKYWLERDGKHATDTNLVECLTKINRMDIVHLME, the abundance fitness is -0.047 ± 0.066. With ERLAYIADHLGFSWTELARELDFTEEQIHQARIENPNSLQDQSHALLKYWLERDGKHATDTNLVECLTKINRMDIVHLME the figure was -0.545 ± 0.084; with ERLAYIADHLGFSWTELARELDFTEEQIHQERIENPNSLQDQSHALLKYWLERDGKHATDTNLVECLTKINRMDIVHLME, -0.791 ± 0.45; with ERLAYIADHLGFSWTELARELDFTEEQIHQIRIENPNSLQDQSHALFKYWLERDGKHATDTNLVECLTKINRMDIVHLME, 0.046 ± 0.13. Next, ERLAYIADHLGFSWTFLARELDFTEEQIHQIRIENPNSLQDQSHALLKYWLERDGKHATDTNLVECLTKINRMDIVHLME: -0.09 ± 0.13.

With ERLAYIADHLGFSWTRLARELDFTEEQIHQIRIENPNSLQDQSHALLKYWLERDGKHATDTNLVECLTKINRMDIVHLME, the abundance fitness is 0.026 ± 0.054. As for ERLAYIADHLGFSWTELARELDFTEEQIHQIRIENPNSLQDQSHALLKKWLERDGKHATDTNLVECLTKINRMDIVHLME, the abundance fitness was -0.052 ± 0.18.

Turning to ERLAYIADHLGFSWTELARELDFTEEQIHQIRIENPNSLQDQSHALLKFWLERDGKHATDTNLVECLTKINRMDIVHLME, the abundance fitness was found to be 0.02 ± 0.15.

Regarding ERLAYIADHLGFSWTELARELDFTEEQIHQIRIENPNSLQDQSHALLKSWLERDGKHATDTNLVECLTKINRMDIVHLME, the abundance fitness was -0.001 ± 0.051. Next, ERLAYIADHLGFSWTELARELDFTEEQIHQIRIENPNSLQDQSHALLKIWLERDGKHATDTNLVECLTKINRMDIVHLME: -0.009 ± 0.13. With ERLAYIADHLGFSWTELARELDFTEEQIHQIDIENPNSLQDQSHALLKYWLERDGKHATDTNLVECLTKINRMDIVHLME the figure was -0.073 ± 0.18; with ERLAYIADHLGFSWTELARELDFTEEQIHQIRIENPNSYQDQSHALLKYWLERDGKHATDTNLVECLTKINRMDIVHLME, 0.076 ± 0.095; with ERLAYIADHLGFSWTELARELDFTEEQIHQIRIENPNSIQDQSHALLKYWLERDGKHATDTNLVECLTKINRMDIVHLME, 0.071 ± 0.25.

As for ERLAYIADVLGFSWTELARELDFTEEQIHQIRIENPNSLQDQSHALLKYWLERDGKHATDTNLVECLTKINRMDIVHLME, the abundance fitness is -0.043 ± 0.38. On to ERLAYIADTLGFSWTELARELDFTEEQIHQIRIENPNSLQDQSHALLKYWLERDGKHATDTNLVECLTKINRMDIVHLME, for which the abundance fitness is -0.33 ± 0.24. Consider ERLAYIADHLGFSWTELAREWDFTEEQIHQIRIENPNSLQDQSHALLKYWLERDGKHATDTNLVECLTKINRMDIVHLME, for which the abundance fitness was -0.093 ± 0.08.

Regarding ERLAYIADHLGFSWTELARELDFTEEQIHQIRIENPNSLLDQSHALLKYWLERDGKHATDTNLVECLTKINRMDIVHLME, the abundance fitness is -0.171 ± 0.095. Take ERLAYIADHLGFSWTELARELDFTEEQIHQIRIENPNSLRDQSHALLKYWLERDGKHATDTNLVECLTKINRMDIVHLME: the abundance fitness was -0.07 ± 0.08. With ERLAYIADHLGFSWTELARELDFTEEQIHQIRIENPNSLPDQSHALLKYWLERDGKHATDTNLVECLTKINRMDIVHLME the figure was -0.045 ± 0.097; with ERLAYIADHLGFSWTELARELDFTEEQIHQIRIENPNSLQSQSHALLKYWLERDGKHATDTNLVECLTKINRMDIVHLME, -0.005 ± 0.054; with ERLAYIADHLGFSWTELARELDFTEEGIHQIRIENPNSLQDQSHALLKYWLERDGKHATDTNLVECLTKINRMDIVHLME, -0.144 ± 0.06. Next, ERLANIADHLGFSWTELARELDFTEEQIHQIRIENPNSLQDQSHALLKYWLERDGKHATDTNLVECLTKINRMDIVHLME: 0.386 ± 0.43. With ERLAYIADHLGVSWTELARELDFTEEQIHQIRIENPNSLQDQSHALLKYWLERDGKHATDTNLVECLTKINRMDIVHLME the figure was -0.045 ± 0.076; with ERLAYIADHLGFSWYELARELDFTEEQIHQIRIENPNSLQDQSHALLKYWLERDGKHATDTNLVECLTKINRMDIVHLME, -0.433 ± 0.43.
